Biological target: the molecule itself
Test: crystal structure; hanging drop, 5 mg/ml enzyme, 0.1 M Tris pH 9.0, 28 to 30% PEG mono ethylene ether 500, 4°C; soaked with ceftazidime; space group P2(1)2(1)2(1), four chains in the asymmetric unit

B1: OXA-48 variant L67F (enzyme)
chain: KEWQENKSWNAHFTEHKSQGVVVLWNENKQQGFTNNLKRANQAFFPASTFKIPNSLIALDLGVVKDEHQVFKWDGQTRDIATWNRDHNLITAMKYSVVPVYQEFARQIGEARMSKMLHAFDYGNEDISGNVDSFWLDGGIRISATEQISFLRKLYHNKLHVSERSQRIVKQAMLTEANGDYIIRAKTGYSTRIEPKIGWWVGWVELDDNVWFFAMNMDMPTSDGLGLRQAITKEVLKQEKIIP
modifications: carboxylated lysine at K73
notes: point mutation L67F made by site-directed mutagenesis; Crystals were soaked with ceftazidime; chains C and D carry a hydrolysed ceftazidime molecule; also called OXA-48 L67F; source: E. coli BL21 AI (pDEST17), purified
  stoichiometry N: 2
